These results are taken from PMC9363494 (2022).

For orientation: Kd means a measure of binding affinity in units of concentration. Low readings indicate tighter binding, high ones weaker binding.

In this assay the target is full-length α-synuclein (UniProt P37840 1-140). The assay is described as follows: NMR; segment 1 (Seg-1).

B1: protein disulfide isomerase (enzyme)
chain: not shown
The molecule B1 displayed a Kd of 750 µM.
